In patent US20190062438A1 (CSL, published 2019):
Changes are numbered by the printed parent chain. “And” between values parts separate entries of the source, which are not always exact repeats. Equal entries are not always repeated.

Columns and labels:
Assay in all cases: SPR, steady state, Fab over captured mutant
shCD131 M340A = target: T1, shCD131 M340A (human, UniProt P32927 17-438)
T1 construct: C-terminal 6xHis
T1 sequence: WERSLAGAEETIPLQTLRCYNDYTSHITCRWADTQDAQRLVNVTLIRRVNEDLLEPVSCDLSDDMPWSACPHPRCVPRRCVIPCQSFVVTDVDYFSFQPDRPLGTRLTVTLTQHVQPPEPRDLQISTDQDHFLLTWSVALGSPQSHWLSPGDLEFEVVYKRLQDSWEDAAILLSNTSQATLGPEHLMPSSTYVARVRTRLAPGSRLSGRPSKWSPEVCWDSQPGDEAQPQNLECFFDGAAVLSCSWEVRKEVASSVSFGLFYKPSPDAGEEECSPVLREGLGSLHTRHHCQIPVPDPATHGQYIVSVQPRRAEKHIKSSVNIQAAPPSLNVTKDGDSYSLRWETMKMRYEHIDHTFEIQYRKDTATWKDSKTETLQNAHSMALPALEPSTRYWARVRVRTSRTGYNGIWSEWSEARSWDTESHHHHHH
Protocol: (§1) For some analysis purified Fab was injected over each flow cell for 3 minutes and dissociation was monitored for a further 10 minutes. Regeneration of the surface was performed after each cycle with a 40 second injection of 25 mM glycine, pH 2.0. The analysis was performed with Fabs at several concentrations between 100 and 0.31 nM, with each concentration analyzed twice and in random order. The analysis was performed at a flow rate of 30 μl/min in HBS-EP buffer (10 mM Hepes, 150 mM NaCl, 3 mM EDTA, 0.005% Tween 20, pH 7.4) at 37° C. Responses from spots 2 and 4 of each flow cell, (in which shβc was not captured, but otherwise treated identically), were subtracted from those of spots 1 and 5 respectively to produce reference subtracted data. Reference subtracted responses from a blank injection comprising buffer alone were subtracted from the resultant sensorgrams to produce double referenced data suitable for kinetic analysis. Double-referenced sensorgrams were fitted using non-linear regression to a model describing 1:1 kinetics, including a term for mass transport limitation. The Rₘₐₓ value was fitted locally to account for slight deviations in the level of sCD131 captured, with association rate (kₐ), dissociation rate (kd) and equilibrium dissociation constant (KD) fitted globally.
(§2) Mapping of the shCD131 epitope was performed by measurement of the affinity of Fabs for various alanine point mutants of shCD131 essentially as described above, with the following exceptions. Each shCD131 mutant was captured for 120 seconds at concentrations between 1 and 5 μg/ml. For kinetic analysis, purified recombinant Fabs were injected for 2 minutes, and dissociation was monitored for a further 2 minutes. […] Fab concentrations ranged from 16 μM to 3.9 nM in two-fold dilutions. The assays were conducted at 25° C. All sensorgrams were reference subtracted as described above. For determination of steady-state affinity (KD only), the response at the end of the binding phase was used to fit the data to a single-site binding model. Kinetic parameters were determined as described above.

shCD131 N37A = target: T2, shCD131 N37A (human, UniProt P32927 17-438)
T2 construct: C-terminal 6xHis
T2 sequence: T1 sequence with N21A, A324M
Protocol: as §1, §2

shCD131 I368A = target: T3, shCD131 I368A (human, UniProt P32927 17-438)
T3 construct: C-terminal 6xHis
T3 sequence: T1 sequence with A324M, I352A
Protocol: as §1, §2

shCD131 H367A = target: T4, shCD131 H367A (human, UniProt P32927 17-438)
T4 construct: C-terminal 6xHis
T4 sequence: T1 sequence with A324M, H351A
Protocol: as §1, §2

B1: 9A2 Fab (Fab, V domains shown)
VH: EVQLLESGGGLVQPGGSLRLSCAASGFTFSHYHMLWVRQAPGKGLEWVSSIRSSGGFTYYADSVKGRFTISRDNSKNTLYLQMNSLRAEDTAVYYCARFYDSFFDIWGQGTMVTVSS
VL: DIQMTQSPSSVSASVGDRVTITCRASQGISSWLAWYQQKPGKAPKLLIYAASSLQSGVPSRFSGSGSGTDFTLTISSLQPEDFATYYCQQANSFPITFGQGTRLEIKR
notes: also called recombinant Fab of 9A2
- Kd (shCD131 M340A): 0.235 µM
- Kd (shCD131 N37A): 0.62 µM
- Kd (shCD131 I368A): 4.77 µM
- Kd (shCD131 H367A): 10.3 µM and 10.8 µM
